Assay results: PMC9512048, “Characterization of a xylitol dehydrogenase from Aspergillus flavus and its application in L-xylulose production” (Frontiers in Bioengineering and Biotechnology, 2022)

Experiments:
AfXDH = target: T1, AfXDH (Aspergillus flavus, UniProt A0A7U2N396); test: product inhibition of xylitol oxidation; format: biochemical; conditions: read-out: K i, NADH
T1 construct: gene F9C07_11531; full length, 369 residues, 38,893 Da; 6xHis tag (printed as C-terminal, vector pQE80L); E. coli BL21 (DE3); monomer, 2 Zn per monomer
T1 sequence (A0A7U2N396 1-369): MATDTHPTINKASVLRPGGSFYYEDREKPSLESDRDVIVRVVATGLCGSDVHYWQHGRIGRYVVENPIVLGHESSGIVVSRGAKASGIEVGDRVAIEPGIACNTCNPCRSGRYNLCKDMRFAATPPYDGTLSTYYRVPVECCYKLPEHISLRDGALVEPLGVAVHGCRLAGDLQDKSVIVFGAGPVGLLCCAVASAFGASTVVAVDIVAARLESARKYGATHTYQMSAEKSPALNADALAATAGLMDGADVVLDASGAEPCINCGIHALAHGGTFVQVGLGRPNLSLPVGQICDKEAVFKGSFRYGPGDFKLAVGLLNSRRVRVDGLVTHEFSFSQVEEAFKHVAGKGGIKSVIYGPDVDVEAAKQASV

NADH formation at A340 = substrate: OC[C@@H](O)[C@@H](O)[C@H](O)[C@@H](O)CO; test: NADH formation at A340; format: biochemical, Aspergillus flavus; conditions: NAD+, pH 9.5, only in abstract, b45 prints 16.2 mM for xylitol, so order in abstract may be uncertain
[1] = substrate: OC[C@@H](O)[C@H](O)[C@@H](O)CO; test: NADH formation at A340, Michaelis-Menten fit; format: biochemical, Aspergillus flavus; conditions: NAD+, 20 mM Tris-glycine pH 9.5, 0.1 mM Zn2+, 16.9 in abstract and Table 2, but b45 prints 16.2 mM
Source text: (§1) NADH formation at A340, Michaelis-Menten fit on AfXDH

[2] = substrate: NC(=O)c1ccc[n+]([C@@H]2O[C@H](COP(=O)(O)OP(=O)(O)OC[C@H]3O[C@@H](n4cnc5c(N)ncnc54)[C@H](O)[C@@H]3O)[C@@H](O)[C@H]2O)c1; test: NADH formation at A340, Michaelis-Menten fit; format: biochemical, Aspergillus flavus; conditions: xylitol, 20 mM Tris-glycine pH 9.5, 0.1 mM Zn2+, 0.1-3 mM NAD+, b45 prints 0.15 mM, varied: cofactor
Source text: as §1

With `NC(=O)C1=CN([C@@H]2O[C@H](COP(=O)(O)OP(=O)(O)OC[C@H]3O[C@@H](n4cnc5c(N)ncnc54)[C@H](O)[C@@H]3O)[C@@H](O)[C@H]2O)C=CC1` [NADH] as the molecule, how does the Ki (AfXDH) read?
Its Ki is 250 µM.

B1: AfXDH (Aspergillus flavus NRRL3357) (protein)
chain: MATDTHPTINKASVLRPGGSFYYEDREKPSLESDRDVIVRVVATGLCGSDVHYWQHGRIGRYVVENPIVLGHESSGIVVSRGAKASGIEVGDRVAIEPGIACNTCNPCRSGRYNLCKDMRFAATPPYDGTLSTYYRVPVECCYKLPEHISLRDGALVEPLGVAVHGCRLAGDLQDKSVIVFGAGPVGLLCCAVASAFGASTVVAVDIVAARLESARKYGATHTYQMSAEKSPALNADALAATAGLMDGADVVLDASGAEPCINCGIHALAHGGTFVQVGLGRPNLSLPVGQICDKEAVFKGSFRYGPGDFKLAVGLLNSRRVRVDGLVTHEFSFSQVEEAFKHVAGKGGIKSVIYGPDVDVEAAKQASV
notes: full length, 369 residues, 38,893 Da; 6xHis tag (printed as C-terminal, vector pQE80L); E. coli BL21 (DE3); monomer, 2 Zn per monomer
What does the source list for B1?
Km (NADH formation at A340): 16.2 mM; Km [1]: 16.9 mM; kcat [1]: 48.67 s⁻¹; kcat/Km [1]: 2880 M⁻¹ s⁻¹; Km [2]: 0.17 mM
